Read-outs that look alike come from different tables or passages of the source.
T1: mouse CCR8 expressed on 293T cells (mouse, UniProt P56484 1-353)
T1 construct: whole, on cells
T1 sequence (looked up): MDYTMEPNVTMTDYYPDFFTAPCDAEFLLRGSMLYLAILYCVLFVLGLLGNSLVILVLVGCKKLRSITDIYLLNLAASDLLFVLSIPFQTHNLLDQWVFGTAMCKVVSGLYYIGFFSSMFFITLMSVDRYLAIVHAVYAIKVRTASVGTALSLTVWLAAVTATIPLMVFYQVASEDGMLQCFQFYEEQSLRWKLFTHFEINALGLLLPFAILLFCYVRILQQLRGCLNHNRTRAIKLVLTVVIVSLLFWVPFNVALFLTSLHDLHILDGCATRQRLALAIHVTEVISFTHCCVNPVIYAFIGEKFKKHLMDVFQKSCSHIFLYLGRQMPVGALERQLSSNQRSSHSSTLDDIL

T2: Cynomolgus CCR8-ECD-Fc (cynomolgus monkey)
T2 construct: also called CyCCR8-ECD-Fc; Cynomolgus CCR8-Fc
T2 chain: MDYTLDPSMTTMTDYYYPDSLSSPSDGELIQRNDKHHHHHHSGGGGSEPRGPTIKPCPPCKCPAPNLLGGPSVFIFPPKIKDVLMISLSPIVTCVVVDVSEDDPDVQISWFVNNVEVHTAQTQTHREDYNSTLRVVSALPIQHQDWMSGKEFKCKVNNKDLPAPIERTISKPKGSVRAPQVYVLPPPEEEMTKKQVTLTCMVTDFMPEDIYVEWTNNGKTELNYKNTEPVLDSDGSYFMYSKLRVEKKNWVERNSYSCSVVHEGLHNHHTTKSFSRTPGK

T3: Human CCR8-ECD-Fc (human)
T3 construct: also called HuCCR8-ECD-Fc; huCC8-ECD-Fc
T3 chain: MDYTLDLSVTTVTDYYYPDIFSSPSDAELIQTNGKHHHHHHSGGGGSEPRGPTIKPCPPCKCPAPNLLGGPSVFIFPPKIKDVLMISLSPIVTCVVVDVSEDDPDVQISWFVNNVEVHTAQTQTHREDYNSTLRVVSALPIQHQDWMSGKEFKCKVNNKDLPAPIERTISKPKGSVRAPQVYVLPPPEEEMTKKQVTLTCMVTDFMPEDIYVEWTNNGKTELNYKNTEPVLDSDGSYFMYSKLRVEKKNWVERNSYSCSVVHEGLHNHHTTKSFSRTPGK


How the values were obtained:
[1] = target: T4, human CCR8 (C-C chemokine receptor type 8) expressed on cells (human, UniProt P51685 1-355); assay: on-cell affinity, flow cytometry on 293T cells expressing human CCR8
T4 construct: also called HuCCR8
T4 sequence (P51685 whole entry): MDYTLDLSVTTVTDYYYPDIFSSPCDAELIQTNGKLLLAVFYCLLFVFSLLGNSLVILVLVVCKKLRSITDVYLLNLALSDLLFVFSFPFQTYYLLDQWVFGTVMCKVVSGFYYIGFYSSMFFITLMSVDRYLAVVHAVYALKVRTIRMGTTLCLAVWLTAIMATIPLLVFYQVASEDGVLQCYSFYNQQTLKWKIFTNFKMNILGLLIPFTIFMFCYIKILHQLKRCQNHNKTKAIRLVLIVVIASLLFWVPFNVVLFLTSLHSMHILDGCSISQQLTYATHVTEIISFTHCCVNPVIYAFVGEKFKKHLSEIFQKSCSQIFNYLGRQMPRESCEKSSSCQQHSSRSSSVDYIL

[2] = target: T1, mouse CCR8 expressed on 293T cells; assay: flow cytometry, mouseCCR8-293T cells, fold geomean over secondary alone
[3] = target: T2, Cynomolgus CCR8-ECD-Fc; assay: binding to CyCCR8-ECD-huFc protein (so in the source), OD45-570nm (so in the source)
[4] = target: T3, Human CCR8-ECD-Fc; assay: binding to HuCCR8-ECD-moFc protein (so in the source), OD45-570nm (so in the source)
[5] = target: T5, cynomolgus monkey CCR8 expressed on cells (cynomolgus monkey, UniProt G7NYJ2 1-355); assay: on-cell affinity, flow cytometry on 293T cells expressing cyno CCR8
T5 construct: whole, on cells; also called cyno CCR8; CyCCR8
T5 sequence (G7NYJ2 entry or part of it): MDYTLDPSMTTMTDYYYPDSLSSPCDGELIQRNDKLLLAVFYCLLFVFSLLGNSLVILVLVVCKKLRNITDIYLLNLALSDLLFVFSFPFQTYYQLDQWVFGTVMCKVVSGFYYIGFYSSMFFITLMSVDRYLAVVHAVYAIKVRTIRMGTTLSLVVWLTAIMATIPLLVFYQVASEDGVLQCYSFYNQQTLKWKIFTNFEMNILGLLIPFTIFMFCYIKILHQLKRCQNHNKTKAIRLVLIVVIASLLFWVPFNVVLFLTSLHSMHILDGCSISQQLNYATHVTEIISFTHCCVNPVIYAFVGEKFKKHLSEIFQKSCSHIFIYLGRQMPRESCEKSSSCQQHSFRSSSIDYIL

[6] = target: T1, mouse CCR8 expressed on 293T cells; assay: flow cytometry, mouseCCR8-293T cells, fold geomean over secondary alone; remark: listed apart in the source
[7] = target: T2, Cynomolgus CCR8-ECD-Fc; assay: binding to CyCCR8-ECD-huFc protein (so in the source), OD45-570nm (so in the source)
[8] = target: T3, Human CCR8-ECD-Fc; assay: binding to HuCCR8-ECD-moFc protein (so in the source), OD45-570nm (so in the source)

Row | Binder | Kd [1] | binding result [2] | binding result [3] | binding result [4] | Kd [5] | binding result [6] | binding result [7] | binding result [8]
1 | anti-CCR8-1-2 (antibody, V domains shown, Parental-1 heavy chain with a shuffled lambda light chain; Human IgG expressed in CHO cells) VH: QVQLVQSGAEVKKPGASVKVSCKASGYTFTSYYMHWVRQAPGQGLEWMGIINPSGGSTSYAQKFQGRVTMTRDTSTSTVYMELSSLRSEDTAVYYCARGVGNGFRFDYWGQGTLVT VL: QSALTQPASVSGSPGQSITISCTGTSGDVGSYSLVSWYQHHPSRAPKLIIYEVNKRPSGVSDRFSGSKSGNTASLTITGLQAEDEAHYFCSSYTGNINLPVVFGGGTKLTVL | 1.06 nM | no binding (tested: 10 ug/ml) | binds | binds | – | – | – | –
2 | anti-CCR8-1-1 (antibody, V domains shown, Parental-1 heavy chain with a shuffled lambda light chain; Expressed from a mammalian expression vector in CHO cells as human IgG) VH: QVQLVQSGAEVKKPGASVKVSCKASGYTFTSYYMHWVRQAPGQGLEWMGIINPSGGSTSYAQKFQGRVTMTRDTSTSTVYMELSSLRSEDTAVYYCARGVGNGFRFDYWGQGTLVT VL: QSALTQPPSVSGSPGQSITISCTGTSSDVGTYNLVSWYQQHPGNAPKLMIYEVTKRPSGVSNRFSGSKSGNTATLTISGLQAEDEADYHCSSYAGSITHVVFGGGTKLTVL | 1.01 nM | – | – | – | 22.1 nM | no binding (tested: 10 ug/ml) | binds | binds

Source: patent US20210238292A1 (VACCINEX, published 2021)
